Tests used:
Experiment in all cases: pull-down
GST-BsUDG S189A = molecular target: T1, GST-BsUDG S189A (Bacillus subtilis, UniProt P39615 1-225, S189A)
T1 sequence: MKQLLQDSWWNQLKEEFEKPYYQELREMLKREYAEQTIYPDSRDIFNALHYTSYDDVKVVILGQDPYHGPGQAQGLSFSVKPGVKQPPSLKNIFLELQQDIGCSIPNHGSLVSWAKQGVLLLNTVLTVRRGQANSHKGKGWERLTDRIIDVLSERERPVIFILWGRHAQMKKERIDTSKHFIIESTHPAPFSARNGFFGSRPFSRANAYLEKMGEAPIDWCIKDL

GST-BsUDG R194S = molecular target: T2, GST-BsUDG R194S (Bacillus subtilis, UniProt P39615 1-225, R194S)
T2 sequence: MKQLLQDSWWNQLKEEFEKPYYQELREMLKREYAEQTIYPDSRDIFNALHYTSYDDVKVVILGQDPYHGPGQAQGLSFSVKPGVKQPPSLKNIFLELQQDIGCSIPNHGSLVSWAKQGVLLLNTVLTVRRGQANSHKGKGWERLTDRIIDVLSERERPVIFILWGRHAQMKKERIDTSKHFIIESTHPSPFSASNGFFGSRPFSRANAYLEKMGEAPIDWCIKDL

GST-BsUDG, wild type = molecular target: T3, GST-BsUDG, wild type (Bacillus subtilis, UniProt P39615 1-225)
T3 sequence: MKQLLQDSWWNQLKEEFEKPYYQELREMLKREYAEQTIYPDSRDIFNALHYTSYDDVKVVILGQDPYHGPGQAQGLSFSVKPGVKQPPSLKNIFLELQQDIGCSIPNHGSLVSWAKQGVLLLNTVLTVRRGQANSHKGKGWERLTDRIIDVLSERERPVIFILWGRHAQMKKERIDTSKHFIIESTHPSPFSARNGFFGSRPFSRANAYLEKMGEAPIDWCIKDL

Row | Binder | complexes formed relative to wild-type p56 (GST-BsUDG, wild type) | other results
1 | phage ϕ29 protein p56, wild type (natural protein, Bacillus subtilis phage ϕ29) MVQNDFVDSYDVTMLLQDDDGKQYYEYHKGLSLSDFEVLYGNTADEIIKLRLDKVL | – | reduction in p56 binding relative to wild-type GST-BsUDG (GST-BsUDG S189A): 84%; reduction in p56 binding relative to wild-type GST-BsUDG (GST-BsUDG R194S): 75%
2 | phage ϕ29 protein p56 D45S (natural protein, Bacillus subtilis phage ϕ29) MVQNDFVDSYDVTMLLQDDDGKQYYEYHKGLSLSDFEVLYGNTASEIIKLRLDKVL | – | complex formation relative to wild-type p56 (GST-BsUDG, wild type): ~75%
3 | phage ϕ29 protein p56 N42R (natural protein, Bacillus subtilis phage ϕ29) MVQNDFVDSYDVTMLLQDDDGKQYYEYHKGLSLSDFEVLYGRTADEIIKLRLDKVL | < 10% | –
4 | phage ϕ29 protein p56 V38E (natural protein, Bacillus subtilis phage ϕ29) MVQNDFVDSYDVTMLLQDDDGKQYYEYHKGLSLSDFEELYGNTADEIIKLRLDKVL | < 10% | –
5 | phage ϕ29 protein p56 H28K (natural protein, Bacillus subtilis phage ϕ29) MVQNDFVDSYDVTMLLQDDDGKQYYEYKKGLSLSDFEVLYGNTADEIIKLRLDKVL | < 10% | –
6 | phage ϕ29 protein p56 D45R (natural protein, Bacillus subtilis phage ϕ29) MVQNDFVDSYDVTMLLQDDDGKQYYEYHKGLSLSDFEVLYGNTAREIIKLRLDKVL | < 10% | –

— PMC3711442 (Nucleic Acids Research, 2013)
